Experimental data published in PMC11686214, “Integrative determination of atomic structure of mutant huntingtin exon 1 fibrils implicated in Huntington disease” (Nature Communications, 2024).
Square brackets hold non-standard residues; d marks the D form. Ends that are not written are not given here.

Molecular target: the molecule itself
Test: solid-state (MAS) NMR of fibrils; synthetic peptide aggregated at 1 mg/mL in PBS pH 7.4 at 37 °C, harvested by centrifugation after 2-3 weeks; 1H-15N HETCOR, 13 kHz MAS, 275 K

B1: K2Q11pGQ11K2 polyQ peptide (peptide)
peptide: KKQQQQQQQQQQQ[dP]GQQQQQQQQQQQKK
modifications: also: two sequential Gln uniformly 13C,15N labelled, positions not given here
notes: written out from the printed formula K2Q11pGQ11K2; p is D-proline; also called polyQ model peptide; source: synthetic peptide (Yale University peptide facility)
B1: binds.
